B1: regulatory (R) domain of the N-methyl-D-aspartate receptor NR2B subunit, NR2B(27-390) (domain or fragment)
chain: not shown
B2: regulatory (R) domain of the N-methyl-D-aspartate receptor NR2A subunit, NR2A(23-389) (domain or fragment)
chain: not shown

Legend:
[1] = target: B1; experiment: co-IP
[2] = target: B2; experiment: co-IP
SEC = target: the molecule itself; experiment: SEC

Row | binding result [1] | binding result [2] | Binder | percentage of the monomer form (SEC)
1 | binds | binds | regulatory (R) domain of the N-methyl-D-aspartate receptor NR1 subunit, NR1(19-380) (domain or fragment) not shown | 37%
2 |  |  | B1 | 71%
3 |  |  | B2 | 73%

From publication PMC2690642 (Journal of neurochemistry, 2008)
